What was measured:
[1] = molecular target: cMCU-ΔNTD (C. elegans MCU residues 167-316, N-terminal domain deleted) (C. elegans) (UniProt Q21121); test: cross-linking
[2] = molecular target: cMCU-ΔNTD (C. elegans MCU residues 167-316, N-terminal domain deleted) (C. elegans) (UniProt Q21121); test: SEC-MALS
[3] = molecular target: cMCU-ΔNTD (C. elegans MCU residues 167-316, N-terminal domain deleted) (C. elegans) (UniProt Q21121); test: negative stain EM
cross-linking = molecular target: the molecule itself; test: cross-linking

Row | Molecule | stoichiometry N [1] | stoichiometry N [2] | stoichiometry N [3] | stoichiometry N (cross-linking)
1 | cMCU-ΔNTD (C. elegans MCU residues 167-316, N-terminal domain deleted) (from UniProt Q21121 167-316) (domain or fragment) | 5 | 5 | 5 | –
2 | KQNFDIEKYNRLVTEVDELRNQLKRMRDPLE [CCH peptide (cMCU residues 288-316 plus C-terminal L and E)] | – | – | – | 5

Reference: PMC4874835 (Nature, 2016)
